In publication doi:10.1101/2024.04.17.589973 (2024) one finds Kd data, which are given here for 19 molecules.

Test in all cases: BLI
Background: Biolayer interferometry detects binding as a change in optical thickness at a sensor tip.

The target of experiment [1] is T1, human TLR3 ectodomain (Wuxi Biologics, custom order) (human, UniProt O15455 24-704, biotin (for yeast display)).
Experiment [2] has as its target T1, human TLR3 ectodomain (Wuxi Biologics, …). This is another data set of the same source.
Experiment [3] has the same target. The source holds these as a separate data set.
Experiment [4] shares this target. This is another data set of the same source.

Residue numbers refer to the chain shown, from its start. Where two headings read alike, the source gives them in different places. Where no end group is shown, it is not given here.

B1: minibinder 8 with C-terminal Avi-His6 tag (designed binder)
chain: SLEEEAERVVEELVKEFNLSETQEIALRRYAEFAAKAGASEEVIEELLRRVAERLS-{Avi-His6}
modifications: also: biotin (for BLI), position not given here
Take B1: binding in experiment [1] was characterised by a dissociation constant (Kd) of 1200 nM.

B2: minibinder 7 with C-terminal Avi-His6 tag (designed binder)
chain: SAMERYVKVLLRTAELAREAGDPEDVRKALEKAELVARILHNEELKEEIREVEEEL-{Avi tag-His6}
modifications: also: biotin
As for B2, binding in experiment [1] was put at a Kd of 440 nM.

B3: minibinder 6 with C-terminal Avi-His6 tag (designed binder)
chain: SAVELYLELLERSLRLAVEAGDPEDAERILRKARQIARVFNDPELEEIVERMEEILK-{Avi tag-His6}
modifications: also: biotin
Take B3: in experiment [2], the Kd (as a rule, the constant that tells how readily two partners part at equilibrium) turned out to be 43 nM.

B4: minibinder 8.5 (designed binder)
chain: SLEEEAERVVEELVKEFNLSRTQEIALRRYAEYAARATASEEVIEELLRRVAERLS
modifications: also: biotin (for BLI), position not given here
For B4, in experiment [3], the Kd came to 170 nM.

B5: minibinder 8.2 (designed binder)
chain: B4 chain with R21E, R36K, T38G
modifications: also: biotin (for BLI), position not given here
B5 showed a Kd in experiment [3] of 600 nM.

B6: minibinder 8.1 (designed binder)
chain: B4 chain with Y33F, R36K, T38G
modifications: also: biotinylated (site not given here)
Regarding B6, the Kd in experiment [3] came to 690 nM.

B7: minibinder 8.4 (designed binder)
chain: B4 chain with T38G
modifications: also: biotin (for BLI), position not given here
B7 displayed a Kd in experiment [3] of 230 nM.

B8: minibinder 8.3 (designed binder)
chain: B4 chain with R36K, T38G
modifications: also: biotin (for BLI), position not given here
In experiment [3], B8 had a Kd of 230 nM.

B9: minibinder 7.8 (designed binder)
chain: SAMEYYVKELLRTAEYAREAGDPEYVRKALEQAELVARILHNEELKEEIREVEEEL
modifications: also: biotinylated (site not given here)
In experiment [4], B9 yielded a Kd of 40 nM.

B10: minibinder 7.11 (designed binder)
chain: B9 chain with Y25D
modifications: also: biotin
B10: the Kd in experiment [4] came out at 45 nM.

B11: minibinder 7.6 (designed binder)
chain: B9 chain with Y25D, Q32K
modifications: also: biotin
As to B11, the Kd in experiment [4] stood at 24 nM.

B12: minibinder 7.3 (designed binder)
chain: B9 chain with E9V
modifications: also: biotin
B12 showed a dissociation constant (Kd) in experiment [4] of 29 nM.

B13: minibinder 7.9 (designed binder)
chain: B9 chain with K28N
modifications: also: biotinylated (site not given here)
On to B13, for which the affinity in experiment [4], expressed as Kd, was 95 nM.

B14: minibinder 7.4 (designed binder)
chain: B9 chain with K8N, E9V, Y25D, Q32K
modifications: also: biotin
The molecule B14 registered a Kd in experiment [4] of 34 nM.

B15: minibinder 7.12 (designed binder)
chain: B9 chain with Y25D, K28N
modifications: also: biotin
In experiment [4], B15 displayed a Kd of 108 nM.

B16: minibinder 7.10 (designed binder)
chain: B9 chain with D22E, K28N
modifications: also: biotin
Consider B16, for which, in experiment [4], binding was characterised by a dissociation constant (Kd) of 190 nM.

B17: minibinder 7.5 (designed binder)
chain: B9 chain with E9V, Y25D
modifications: also: biotin
Turning to B17, in experiment [4], the affinity, expressed as Kd, was 1.1 nM.

B18: minibinder 7.2 (designed binder)
chain: B9 chain with E9V, Q32K
modifications: also: biotin
In experiment [4], B18 gave a Kd of 17 nM.

B19: minibinder 7.7 (designed binder)
chain: B9 chain with Q32K
modifications: also: biotin
Consider B19, for which the Kd in experiment [4] amounted to 31 nM.
